Assay results: patent publication US20090123479A1 (published 2009)

T1: recombinant human IL-23 (human, UniProt Q9NPF7 20-189; P29460 23-328)
T1 construct: also called hIL-23
T1 sequence 1: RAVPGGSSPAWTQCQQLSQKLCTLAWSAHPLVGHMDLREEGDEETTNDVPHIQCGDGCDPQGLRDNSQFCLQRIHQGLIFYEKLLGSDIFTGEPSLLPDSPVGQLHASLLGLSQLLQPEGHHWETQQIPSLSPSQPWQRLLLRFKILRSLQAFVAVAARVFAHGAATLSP
T1 sequence 2: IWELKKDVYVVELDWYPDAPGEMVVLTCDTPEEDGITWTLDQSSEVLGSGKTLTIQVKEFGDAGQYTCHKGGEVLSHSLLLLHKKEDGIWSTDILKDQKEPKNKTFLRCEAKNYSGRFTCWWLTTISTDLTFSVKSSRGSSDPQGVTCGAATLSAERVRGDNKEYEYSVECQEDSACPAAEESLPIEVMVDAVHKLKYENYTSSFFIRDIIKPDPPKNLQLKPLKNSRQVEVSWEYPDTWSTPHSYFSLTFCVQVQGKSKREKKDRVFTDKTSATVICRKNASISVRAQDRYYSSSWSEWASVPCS

T2: Endogenous human IL-23 (human, UniProt Q9NPF7 20-189; P29460 23-328)
T2 construct: also called endogenous human IL-23 from stimulated dendritic cells
T2 sequence 1: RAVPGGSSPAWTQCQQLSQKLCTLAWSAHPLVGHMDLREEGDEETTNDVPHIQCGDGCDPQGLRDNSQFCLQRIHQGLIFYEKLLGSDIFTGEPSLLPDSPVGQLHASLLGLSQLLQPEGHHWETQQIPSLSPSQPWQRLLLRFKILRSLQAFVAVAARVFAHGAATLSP
T2 sequence 2: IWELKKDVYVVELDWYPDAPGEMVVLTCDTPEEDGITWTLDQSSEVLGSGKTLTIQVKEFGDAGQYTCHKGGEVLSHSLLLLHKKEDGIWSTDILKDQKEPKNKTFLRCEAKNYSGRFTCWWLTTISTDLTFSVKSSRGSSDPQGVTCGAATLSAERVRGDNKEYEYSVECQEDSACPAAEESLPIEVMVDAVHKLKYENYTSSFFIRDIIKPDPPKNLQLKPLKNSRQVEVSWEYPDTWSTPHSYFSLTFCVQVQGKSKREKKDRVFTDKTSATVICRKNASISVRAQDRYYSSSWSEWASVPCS

T3: recombinant cynomologus IL-23 (cynomolgus, limits assumed)
T3 construct: also called cynomolgus IL-23; cyno IL23
T3 chain 1: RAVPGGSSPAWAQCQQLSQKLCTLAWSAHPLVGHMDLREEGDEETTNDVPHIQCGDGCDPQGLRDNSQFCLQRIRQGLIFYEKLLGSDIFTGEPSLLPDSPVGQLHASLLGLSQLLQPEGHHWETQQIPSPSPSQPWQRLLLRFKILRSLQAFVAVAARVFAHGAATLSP
T3 chain 2: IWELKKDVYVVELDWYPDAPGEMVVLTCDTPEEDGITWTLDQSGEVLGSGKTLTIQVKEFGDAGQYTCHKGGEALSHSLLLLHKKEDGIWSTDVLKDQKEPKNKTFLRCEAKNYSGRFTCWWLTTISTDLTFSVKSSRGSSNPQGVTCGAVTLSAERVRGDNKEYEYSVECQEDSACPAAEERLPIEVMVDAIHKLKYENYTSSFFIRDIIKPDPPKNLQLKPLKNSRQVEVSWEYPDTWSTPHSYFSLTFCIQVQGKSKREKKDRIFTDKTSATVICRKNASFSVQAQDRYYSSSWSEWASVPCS


Tests used:
recombinant human IL-23 [1] = target: T1, recombinant human IL-23; assay: IL-23/IL-23R inhibition ELISA (optimised protocol, OD450): plate coated with human IL23R Fc chimera, antibody pre-incubated with constant human IL-23, bound IL-23 detected with biotinylated anti-human IL-12; purified antibody
Experimental: (§1) Optimised protocol: Plates were coated with human IL23R Fc chimera at […] (phosphate buffered saline). 50 μl/well of this mixture was incubated overnight at 4° C. The plates were then washed three times with Phosphate Buffered Saline with 0.05% Tween 20 (PBST). Plates were blocked with 4% skim milk powder (Fluka BioChemika #70166) PBST 100 μl/well for a minimum of 1 hour at room temperature. The plates were then washed three times with Phosphate Buffered Saline+0.05% Tween 20 (PBST). Various concentrations of antibody were incubated in a separate plate with a constant concentration of IL-23 for 1 hour at room temperature. 50 ul of each mixture were transferred to the assay plate and incubated at RT for 1 hr. They were then washed three times with Phosphate Buffered Saline+0.05% Tween 20 (PBST). Bound IL23 was detected by anti human 1L12 Biotin labelled Ab (R&D systems BAF219) diluted to 100 ng/ml in 4% skim milk powder (Fluka BioChemika #70166) PBST. 50 μl/well of the biotinylated antibody was added and incubated at RT for 1 hour. The plates were then washed three times with Phosphate Buffered Saline+0.05% Tween 20 (PBST). SA HRP (GE healthcare RPN4401) was diluted 1/4000 in 4% skim m ilk powder (Fluka BioChemika #70166) PBS, 50 μl/well was added to the plates. The plates were then washed three times with Phosphate Buffered Saline+0.05% Tween 20 (PBST). 50 ul/well of TMB was added to the plates and incubated at RT for 15 min. 25 μl/well of 3 MH₂SO₄ was added to the wells already containing TMB. The plate was read at OD450 nm using the SOftmaxPRO versamax plate reader.

recombinant human IL-23 [2] = target: T1, recombinant human IL-23; assay: sandwich ELISA (optimised protocol, OD450): plate coated with anti-human IL-12, antibody pre-incubated with constant human IL-23, bound antibody detected with anti-human IgG gamma chain HRP; purified antibody
Experimental: Optimised assay conditions: Plates were coated with anti human IL12 at 2 μg/diluent (phosphate buffered saline). 50 μl/well of this mixture was incubated overnight at 4° C. The plates were then washed three times with Phosphate Buffered Saline with 0.05% Tween 20 (PBST). Plates were blocked with 4% skim milk powder (Fluka BioChemika #70166) PBS 200 μl/well for a minimum of 1 hour at room temperature. The plates were then washed three times with Phosphate Buffered Saline+0.05% Tween 20 (PBST). Various concentrations of antibody were incubated in a separate plate with a constant concentration of IL-23 for 1 hour at room temperature. 50 ul of each mixture were transferred to the assay plate and incubated at RT for 1 hr. They were then washed three times with Phosphate Buffered Saline+0.05% Tween 20 (PBST). […] 50 μl/well of the detection antibody was added and incubated at RT for 1 hour. The plates were then washed three times with Phosphate Buffered Saline+0.05% Tween 20 (PBST). 50 μl/well of TMB was added to the plates and incubated at RT for 10 min. 50 μl/well of 1 MH₂SO₄ was added. The plate was read at OD450 nm using the SOftmaxPRO versamax plate reader.

Endogenous human IL-23 = target: T2, Endogenous human IL-23; assay: receptor inhibition ELISA in 25% human pooled AB serum: plate coated with recombinant human IL-23 receptor, endogenous human IL-23 at 5 ng/ml pre-incubated with titrated purified antibody, bound IL-23 detected with biotinylated anti-human IL-12
Experimental: Recombinant human IL-23 Receptor (R&D systems 1400-IR-050) was coated onto 96 well plates at a concentration of 1 μg/ml. Endogenous human IL-23 at 5 ng/ml final, was pre incubated with a titration of purified mAbs before being added to the pre-coated plates. Detection was performed with biotinylated anti-human IL12 (R&D systems BAF-219), followed by Streptavidin-HRP (GE Healthcare RPN 4401). This neutralisation ELISA used 25% human pooled AB type serum.

[3] = target: T3, recombinant cynomologus IL-23; assay: IL-23/IL-23R inhibition ELISA (optimised protocol, OD450): plate coated with human IL23R Fc chimera, antibody pre-incubated with constant cynomolgus IL-23, bound IL-23 detected with biotinylated anti-human IL-12; purified antibody
Experimental: as §1

Row | IC50 (read off the curve) (recombinant human IL-23 [1]) | EC50 (read off the curve) (recombinant human IL-23 [2]) | IC50 (read off the curve) (Endogenous human IL-23) | IC50 (read off the curve) [3] | Binder
1 | ~2 nM | ~0.1 nM | ~0.02 µg/mL | ~2 nM | chimeric 8C92H6 HC1LC1 (antibody, V domains shown, Murine variable regions with human constant regions; also called 8C92H6.HC1LC1 Chimera; 8C9 chimera) VH: QVQLQQSGAELARPGTSVKLSCKASGYTFTSYGITWVKQRTGQGLEWIGENYPRSGNTYYNEKFKGKATLTADKSSSTAYMELRSLTSEDSAVYFCARCEFISTVVAPYYYALDYWGQGTSLVTVS VL: DIVLTQSPASLAVSLGQKATISCKASKKVTIFGSISALHWYQQKPGQPPKLIYNGAKLESGVSARFSDSGSQNRSPFGNQLSFTLTIDPVEADDAATYYCLQNKEVPYTFGGGTKLEIKR
2 | ~0.5 nM | ~0.03 nM | ~0.01 µg/mL | ~0.7 nM | A3M0 (antibody, human IgG1, kappa, V domains shown, Full length chains; also called humanized mAb A3M0) VH: QVQLVQSGAEVKKPGSSVKVSCKASGYTFTSYGITWVRQAPGQGLEWMGENYPRSGNTYYNEKFKGRVTITADKSTSTAYMELSSLRSEDTAVYYCARSEFISTVVAPYYYALDYWGQGTLVTVSS VL: DIVMTQSPDSLAVSLGERATINCKASKKVTIFGSISALHWYQQKPGQPPKLIYNGAKLESGVPDRFSGSGSGTDFTLTISSLQAEDVAVYYCLQNKEVPYTFGGGTKVEIKR
